{"source": "patent CN116178540A", "about": "(SANYOU BIO INC, dated 2023)", "binders": {"B1": {"name": "nesvacumab (antibody, V domains shown)", "VH": "EVQLVESGGGLVQPGGSLRLSCAASGFTFSSYDIHWVRQATGKGLEWVSAIGPAGDTYYPGSVKGRFTISRENAKNSLYLQMNSLRAGDTAVYYCARGLITFGGLIAPFDYWGQGTLVTVSS", "VL": "EIVLTQSPGTLSLSPGERATLSCRASQSVSSTYLAWYQQKPGQAPRLLIYGASSRATGIPDRFSGSGSGTDFTLTISRLEPEDFAVYYCQHYDNSQTFGQGTKVEIK"}, "B2": {"name": "17 (antibody, V domains shown)", "VH": "EVQLVESGGGVVKPGGSLRLSCAASGFTFNKYTINWVRQTPGKGLELVADISSGGDYVNYADSVKGRFTISRDNAKDSVYLLMNGLRAEDTAVYYCARDALTYSNNWLDSWGQGTLVTVSS", "VL": "DIQLTQSPSFLSASVGDRVTITCRASQGISSYLAWYQQKPGKAPKLLIYAASTLQSGVPSRFSGGGYGTDFTLTISSLQPEDFATYYCQQFESYPLTFGGGTRLEIK"}, "B3": {"name": "抗体78A74-25 (antibody, IgG1, V domains shown)", "VH": "QVQLVESGGGLVKPGGSLRLSCAASGFTFSSYSMNWVRQAPGKGLEWVAVISYDGSNKYYADSVKGRFTISRDNSKNTLYLQMNSLRAEDTAVYYCAKATLDGYTAGYYYGMDVWGQGTTVTVSS", "VL": "EIVLTQSPATLSLSPGERATLSCRASQSVSSYLAWYQQKPGQAPRLLIYDASNRATGIPARFSGSGSGTDFTLTISSLEPEDFAVYYCQQRSNWPPELYFGQGTKVEIK"}, "B4": {"name": "抗体78A74-7 (antibody, IgG1, V domains shown)", "VH": "B3 VH", "VL": "B3 VL with Q90L, R91M, L98W, Y99T"}, "B5": {"name": "抗体78A74-21 (antibody, IgG1, V domains shown)", "VH": "B3 VH with A99E", "VL": "B3 VL with S30G, W94G, L98W, Y99T"}, "B6": {"name": "抗体78A74-35 (antibody, IgG1, V domains shown)", "VH": "B3 VH", "VL": "B3 VL with E97A, L98M, Y99T"}, "B7": {"name": "抗体78A74-36 (antibody, IgG1, V domains shown)", "VH": "B3 VH", "VL": "B3 VL with S92T, N93M, L98W, Y99T"}}, "key": {"hANG2-His [1]": {"target": "T1, hANG2-His (human, UniProt O15123)", "T1 chain": "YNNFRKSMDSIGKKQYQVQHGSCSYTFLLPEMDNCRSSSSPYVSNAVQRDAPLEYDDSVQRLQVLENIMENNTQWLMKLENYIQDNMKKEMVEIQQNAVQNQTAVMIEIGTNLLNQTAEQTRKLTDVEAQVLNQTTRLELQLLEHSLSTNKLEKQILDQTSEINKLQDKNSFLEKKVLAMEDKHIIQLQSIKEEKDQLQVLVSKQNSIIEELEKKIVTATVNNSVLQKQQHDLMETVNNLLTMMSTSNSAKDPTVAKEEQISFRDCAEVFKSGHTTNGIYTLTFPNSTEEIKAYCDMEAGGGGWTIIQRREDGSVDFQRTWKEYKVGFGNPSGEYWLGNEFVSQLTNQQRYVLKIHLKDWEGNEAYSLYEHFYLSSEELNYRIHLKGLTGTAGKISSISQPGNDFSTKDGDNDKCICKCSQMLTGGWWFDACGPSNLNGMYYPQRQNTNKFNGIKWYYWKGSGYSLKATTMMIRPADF", "test": "BLI"}, "hANG2-His [2]": {"target": "T1, hANG2-His", "test": "ELISA"}, "hANG1-Fc": {"target": "T2, hANG1-Fc (human, UniProt Q15389)", "T2 chain": "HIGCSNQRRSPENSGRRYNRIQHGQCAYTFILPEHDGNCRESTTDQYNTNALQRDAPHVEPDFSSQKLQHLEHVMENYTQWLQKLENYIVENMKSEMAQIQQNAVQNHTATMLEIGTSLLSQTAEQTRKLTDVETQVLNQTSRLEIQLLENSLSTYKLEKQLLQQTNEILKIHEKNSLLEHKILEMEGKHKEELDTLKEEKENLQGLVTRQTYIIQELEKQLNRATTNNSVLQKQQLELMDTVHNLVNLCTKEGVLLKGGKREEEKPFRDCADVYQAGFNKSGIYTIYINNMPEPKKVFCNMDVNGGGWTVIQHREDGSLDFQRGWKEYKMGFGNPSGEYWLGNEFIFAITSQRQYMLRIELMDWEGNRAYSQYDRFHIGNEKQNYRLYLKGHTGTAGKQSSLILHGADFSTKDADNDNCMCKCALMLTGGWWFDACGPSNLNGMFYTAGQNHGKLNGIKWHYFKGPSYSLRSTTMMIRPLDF", "test": "ELISA"}, "hANG2-Fc [3]": {"target": "T3, hANG2-Fc (human, UniProt O15123)", "T3 chain": "T1 chain", "test": "FACS competition (TIE2-HEK293)"}, "hANG2-Fc [4]": {"target": "T3, hANG2-Fc", "test": "competition ELISA (TIE2 blocking)"}, "hANG2-His [5]": {"target": "T4, hANG2-His (human, UniProt O15123 19-496, limits assumed)", "T4 construct": "also called 人源ANG2; ANGPT2; not shown: C-terminal His tag", "T4 sequence (looked up)": "T1 chain", "test": "BLI (Gator), antibody captured on sensor, hANG2-His 100/50/25 nM"}, "hANG2-His [6]": {"target": "T4, hANG2-His", "test": "BLI (Gator), antibody captured on sensor, hANG2-His 100/50/25 nM", "remark": "listed apart in the source"}}, "note": "Residue numbers refer to the chain shown, from its start."}
{"binder": "B1", "values": [{"measurement": "Kd", "setting": "hANG2-His [1]", "result": 1.17, "unit": "nM"}, {"measurement": "EC50", "setting": "hANG2-His [2]", "result": 0.442, "unit": "µg/mL"}, {"measurement": "binding result", "setting": "hANG1-Fc", "result": "no binding"}, {"measurement": "IC50", "setting": "hANG2-Fc [3]", "result": 0.362, "unit": "µg/mL"}, {"measurement": "IC50", "setting": "hANG2-Fc [4]", "result": 1.58, "unit": "µg/mL"}]}
{"binder": "B2", "values": [{"measurement": "EC50", "setting": "hANG2-His [2]", "result": 0.12, "unit": "µg/mL"}, {"measurement": "binding result", "setting": "hANG1-Fc", "result": "no binding"}, {"measurement": "IC50", "setting": "hANG2-Fc [3]", "result": 0.323, "unit": "µg/mL"}, {"measurement": "IC50", "setting": "hANG2-Fc [4]", "result": 0.547, "unit": "µg/mL"}]}
{"binder": "B3", "values": [{"measurement": "fold affinity against nesvacumab", "setting": "hANG2-His [5]", "result": "~2", "unit": "fold"}, {"measurement": "Kd", "setting": "hANG2-His [6]", "result": 0.828, "unit": "nM"}, {"measurement": "koff", "setting": "hANG2-His [6]", "result": 0.000161, "unit": "s⁻¹"}, {"measurement": "kon", "setting": "hANG2-His [6]", "result": 194000, "unit": "M⁻¹ s⁻¹"}]}
{"binder": "B4", "values": [{"measurement": "fold affinity against nesvacumab", "setting": "hANG2-His [5]", "result": "~2", "unit": "fold"}, {"measurement": "Kd", "setting": "hANG2-His [6]", "result": 0.544, "unit": "nM"}, {"measurement": "koff", "setting": "hANG2-His [6]", "result": 0.000103, "unit": "s⁻¹"}, {"measurement": "kon", "setting": "hANG2-His [6]", "result": 189000, "unit": "M⁻¹ s⁻¹"}]}
{"binder": "B5", "values": [{"measurement": "fold affinity against nesvacumab", "setting": "hANG2-His [5]", "result": "~2", "unit": "fold"}, {"measurement": "Kd", "setting": "hANG2-His [6]", "result": 0.687, "unit": "nM"}, {"measurement": "koff", "setting": "hANG2-His [6]", "result": 0.000132, "unit": "s⁻¹"}, {"measurement": "kon", "setting": "hANG2-His [6]", "result": 192000, "unit": "M⁻¹ s⁻¹"}]}
{"binder": "B6", "values": [{"measurement": "Kd", "setting": "hANG2-His [6]", "result": 1.52, "unit": "nM"}, {"measurement": "koff", "setting": "hANG2-His [6]", "result": 0.000284, "unit": "s⁻¹"}, {"measurement": "kon", "setting": "hANG2-His [6]", "result": 187000, "unit": "M⁻¹ s⁻¹"}]}
{"binder": "B7", "values": [{"measurement": "Kd", "setting": "hANG2-His [6]", "result": 1.32, "unit": "nM"}, {"measurement": "koff", "setting": "hANG2-His [6]", "result": 0.000263, "unit": "s⁻¹"}, {"measurement": "kon", "setting": "hANG2-His [6]", "result": 200000, "unit": "M⁻¹ s⁻¹"}]}
